Results reported in patent publication US20260116920A1 (PEPTIDREAM, published 2026).
Starred links: 1 amine or outer side, 2 acyl side, 3 side chain; linkers in the order of their positions; H or OH if unused. Positions of bridges follow the written chain, without caps; N, C: chain ends. Non-standard residues stand in square brackets, D forms with d. Primed or numbered codes have the meaning given here. No end group written: not given here. E(PEG8Me) = (S)-30-amino-27-oxo-2,5,8,11,14,17,20,23-octaoxa-26-azahentriacontane-31-oic acid, COCCOCCOCCOCCOCCOCCOCCOCCNC(=O)CC[C@H](N[*:1])C(=O)[*:2]; Phe(4-OMe)(3) = (S)-2-amino-3-(4-methoxyphenyl)propanoic acid (source code F4OMe), COc1ccc(C[C@H](N[*:1])C(=O)[*:2])cc1; F4aao = (S)-2-amino-3-(4-(carboxymethoxy)phenyl)propanoic acid, O=C([C@H](Cc1ccc(OCC(=O)[*:3])cc1)N[*:1])[*:2]; Phe(4-OMe)″ = (S)-2-amino-3-(4-methoxyphenyl)propanoic acid (F4OMe), COc1ccc(C[C@H](N[*:1])C(=O)[*:2])cc1; Trp(1-CH2CO) = O=C([C@H](Cc1cn(CC(=O)[*:3])c2ccccc12)N[*:1])[*:2]; Phe(3-COOH) = N[C@@H](Cc1cccc(C(=O)O)c1)C(=O)O; Trp(7-aza) = N[C@@H](Cc1c[nH]c2ncccc12)C(=O)O; NMePhe(3-Cl) = CN[C@@H](Cc1cccc(Cl)c1)C(=O)O; 3Pal(6-NH2) = Nc1ccc(C[C@H](N)C(=O)O)cn1; NMe3Pal = CN[C@@H](Cc1cccnc1)C(=O)O; NMe4Pal = CN[C@@H](Cc1ccncc1)C(=O)O; NMeY = CN[C@@H](Cc1ccc(O)cc1)C(=O)O; 3Pal = N[C@@H](Cc1cccnc1)C(=O)O; 4Pal = N[C@@H](Cc1ccncc1)C(=O)O

Each binder was assayed against T1, human transferrin receptor (hTfR) (human, UniProt P02786 89-760) (assay: SPR; B = KD 1-100 nM).
T1 construct: used as 0.5 uM hTfR dimer solution, immobilised on an NTA sensor chip (Ni capture plus EDC/NHS coupling); also called human TfR; TfR1
Procedure: NTA sensor chip (Global Life Sciences Technologies Japan K.K.) was inserted into BiacoreT200 (Global Life Sciences Technologies Japan K.K.), then the priming operation was performed three times by using running buffer containing: 10 mM HEPES pH 8.0 (Nacalai Tesque, Inc.), 150 mM NaCl (Nacalai Tesque, Inc.), 0.05% Tween 20 (Nacalai Tesque, Inc.), 0.1% BSA (SIGMA-ALDRICH) and 1.0% DMSO (FUJIFILM Wako Pure Chemical Corporation), and equilibrated at a flow rate of 30 μL/min. 350 mM EDTA solution was reacted at a flow rate of 10 μL/min for 60 seconds, 0.5 mM […] solution (Kishida Chemical Co., Ltd.) was reacted at a flow rate of 10 μL/min for 60 seconds, and then the NTA sensor chip was washed with 3 mM EDTA solution (Nacalai Tesque, Inc.) at a flow rate of 10 μL/min for 60 seconds. After mixing 50 μL each of 60 mM EDC solution (Global Life Science Technologies Japan K.K.) and 650 mM NHS solution (Global Life Science Technologies Japan K.K.), the reaction was carried out at a flow rate of 10 μL/min for 420 seconds. 150 μL of 0.5 μM hTfR dimer solution was prepared by dilution with running buffer and reacted at a flow rate of 10 μL/min for 300 seconds to immobilize hTfR on the NTA sensor chip. For the human transferrin receptor (hTfR), recombinant hTfR described in Example 2 of WO2018/124121 was used. After immobilization, capping was performed by reacting with 1.0 M ethanolamine solution (Global Life Sciences Technologies Japan K.K.) at a flow rate of 10 μL/min for 420 seconds. Peptide lysate prepared in DMSO solution to 10 mM was diluted with running buffer to be a final concentration of 10 μM peptide lysate, then peptide solutions of 100 nM, 50 nM, 25 nM, 10 nM, and 5 nM were prepared. Using the above samples, the kinetics of the peptide against hTfR was obtained by SPR measurement.
The kinetic evaluation model was single-cycle kinetics, and curve fitting was performed using Biacore T200 Evaluation Software Version 3.0 (Global Life Science Technologies Japan K.K.). The binding of the peptide to hTfR was evaluated by performing curve fitting on the obtained sensorgram by least squares method and obtaining the KD value.

T1 sequence (P02786 89-760 limits assumed): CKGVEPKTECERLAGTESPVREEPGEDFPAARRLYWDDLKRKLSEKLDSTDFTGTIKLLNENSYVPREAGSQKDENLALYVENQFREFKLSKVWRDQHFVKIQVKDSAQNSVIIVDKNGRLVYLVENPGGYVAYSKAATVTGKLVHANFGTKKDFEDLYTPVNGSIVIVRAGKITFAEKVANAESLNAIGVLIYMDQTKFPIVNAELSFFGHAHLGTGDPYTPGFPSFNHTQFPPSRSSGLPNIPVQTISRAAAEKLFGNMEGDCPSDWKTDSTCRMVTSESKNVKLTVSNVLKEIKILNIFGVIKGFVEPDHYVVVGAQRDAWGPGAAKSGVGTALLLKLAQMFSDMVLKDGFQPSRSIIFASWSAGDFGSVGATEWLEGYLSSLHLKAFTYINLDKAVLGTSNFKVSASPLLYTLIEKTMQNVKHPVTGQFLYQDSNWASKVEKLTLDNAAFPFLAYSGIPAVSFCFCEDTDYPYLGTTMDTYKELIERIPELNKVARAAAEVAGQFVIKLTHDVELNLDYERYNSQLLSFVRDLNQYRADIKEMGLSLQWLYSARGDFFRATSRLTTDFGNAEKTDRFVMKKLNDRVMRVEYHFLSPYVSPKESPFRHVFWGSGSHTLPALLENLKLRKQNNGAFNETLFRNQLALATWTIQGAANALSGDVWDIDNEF

KD	Binder
1 to 100 nM	{CH2CO}-AV[NMePhe(3-Cl)]V[Trp(1-CH2CO)]NY[F4aao]IIQRF[NMeY]C (thioether N-15; not fully specified (C-terminus)) [894_0302]
1 to 100 nM	Ac-AV[NMe3Pal]VWN[3Pal(6-NH2)][Phe(4-OMe)(3)]IIRRF[NMeY]C (thioether (positions not given here); not fully specified (C-terminus, bridges)) [894_0322]
1 to 100 nM	{CH2CO}-AV[NMePhe(3-Cl)]VWNY[4Pal]IIRRF[NMeY]C-NH2 (thioether N-15; also: linker PEG4c) [894_0319]
1 to 100 nM	{CH2CO}-AV[NMePhe(3-Cl)]V[Trp(1-CH2CO)]NY[F4aao]IIRQF[NMeY]C (thioether N-15; not fully specified (C-terminus)) [894_0303]
1 to 100 nM	{CH2CO}-AV[NMe3Pal]VWNY[Phe(4-OMe)″]IIRR[4Pal][NMeY]C-NH2 (thioether N-15; also: linker PEG4c) [894_0316]
1 to 100 nM	Ac-AV[NMePhe(3-Cl)]V[Trp(1-CH2CO)]NY[3Pal]IIR[E(PEG8Me)]F[NMeY]C (thioether (positions not given here); not fully specified (C-terminus, bridges)) [894_0340]
1 to 100 nM	{CH2CO}-AV[NMePhe(3-Cl)]VWN[3Pal(6-NH2)][Phe(4-OMe)″]IIRR[4Pal][NMeY]C-NH2 (thioether N-15; also: linker PEG4c) [894_0311]
1 to 100 nM	{CH2CO}-AV[NMePhe(3-Cl)]VWN[3Pal(6-NH2)][3Pal]IIRR[4Pal][NMeY]C-NH2 (thioether N-15; also: linker PEG4c) [894_0310]
1 to 100 nM	Ac-AV[NMePhe(3-Cl)]V[Trp(7-aza)]NY[Phe(4-OMe)(3)]IIRR[4Pal][NMeY]C (thioether (positions not given here); not fully specified (C-terminus, bridges)) [894_0324]
1 to 100 nM	{CH2CO}-AV[NMePhe(3-Cl)]V[Trp(1-CH2CO)]N[3Pal(6-NH2)][3Pal]IIRR[4Pal][NMeY]C (thioether N-15; not fully specified (C-terminus)) [894_0307]
1 to 100 nM	Ac-AV[NMePhe(3-Cl)]V[Trp(1-CH2CO)]NY[3Pal]IIRR[Phe(3-COOH)][NMeY]C (thioether (positions not given here); not fully specified (C-terminus, bridges)) [894_0341]
1 to 100 nM	{CH2CO}-AV[NMePhe(3-Cl)]V[Trp(1-CH2CO)]NY[3Pal]IIRR[4Pal][NMeY]C (thioether N-15; not fully specified (C-terminus)) [894_0306]
1 to 100 nM	Ac-AV[NMePhe(3-Cl)]V[Trp(1-CH2CO)]N[3Pal(6-NH2)][F4aao]IIRRF[NMeY]C (thioether (positions not given here); not fully specified (C-terminus, bridges)) [894_0337]
1 to 100 nM	Ac-AV[NMe4Pal]VWN[3Pal(6-NH2)][Phe(4-OMe)(3)]IIRRF[NMeY]C (thioether (positions not given here); not fully specified (C-terminus, bridges)) [894_0323]
1 to 100 nM	{CH2CO}-AV[NMePhe(3-Cl)]VWNY[3Pal]IIRR[4Pal][NMeY]C (thioether N-15; not fully specified (C-terminus)) [894_0309]
1 to 100 nM	{CH2CO}-AV[NMe4Pal]VWNY[Phe(4-OMe)″]IIRRF[NMeY]C-NH2 (thioether N-15; also: linker PEG4c) [894_0314]
1 to 100 nM	{CH2CO}-AV[NMePhe(3-Cl)]VWNY[3Pal]IIRRF[NMeY]C (thioether N-15; not fully specified (C-terminus)) [894_0318]
1 to 100 nM	Ac-AV[NMePhe(3-Cl)]VWNY[Phe(4-OMe)(3)]IIRR[4Pal][NMe3Pal]C (thioether (positions not given here); not fully specified (C-terminus, bridges)) [894_0325]
1 to 100 nM	{CH2CO}-AV[NMePhe(3-Cl)]VWN[3Pal(6-NH2)][Phe(4-OMe)″]IIRRF[NMeY]C-NH2 (thioether N-15; also: linker PEG4c) [894_0315]
1 to 100 nM	Ac-AV[NMePhe(3-Cl)]V[Trp(1-CH2CO)]NY[Phe(4-OMe)(3)]IIR[E(PEG8Me)]F[NMeY]C (thioether (positions not given here); not fully specified (C-terminus, bridges)) [894_0334]
1 to 100 nM	Ac-AV[NMePhe(3-Cl)]V[Trp(1-CH2CO)]N[3Pal(6-NH2)][Phe(4-OMe)(3)]IIRR[Phe(3-COOH)][NMeY]C (thioether (positions not given here); not fully specified (C-terminus, bridges)) [894_0339]
1 to 100 nM	{CH2CO}-AV[NMePhe(3-Cl)]VWN[3Pal(6-NH2)][4Pal]IIRR[4Pal][NMeY]C-NH2 (thioether N-15; also: linker PEG4c) [894_0320]
1 to 100 nM	{CH2CO}-AV[NMePhe(3-Cl)]VWNY[4Pal]IIRR[4Pal][NMeY]C-NH2 (thioether N-15; also: linker PEG4c) [894_0312]
1 to 100 nM	{CH2CO}-AV[NMePhe(3-Cl)]V[Trp(1-CH2CO)]N[3Pal(6-NH2)][Phe(4-OMe)″]IIRR[4Pal][NMeY]C (thioether N-15; not fully specified (C-terminus)) [894_0308]
1 to 100 nM	{CH2CO}-AV[NMe3Pal]VWNY[Phe(4-OMe)″]IIRRF[NMeY]C-NH2 (thioether N-15; also: linker PEG4c) [894_0313]
